In the RNAGym collection of RNA variant scans (doi:10.1073/pnas.2313332121):

B1: TPR t1 (parent)
chain: GACCAAUCUGCCCUCAGAGCUCGAGAACAUCUUCGGAUGCAGAGGAGGCAGGCUUCGGUGGCGCGAUAGCGCCAACGUCCUCAACCUCCAAUGCAUCCCACCACAUGAUGAUGCCUGAAGAGCCUUGGUUUUUUG

Variants of: B1
Assay: polymerase ribozyme fitness, log enrichment relative to wild type (log ratio); higher = more active; in vitro selection for triplet polymerase activity
How it was run: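 In triplicate, a single round of in vitro selection was run on each mutant library, PCR-built and transcribed, covering one subunit of a heterodimeric triplet polymerase ribozyme. Frozen incubation at −7 °C followed annealing with a biotinylated primer, partner subunit and triplets, and extended constructs were then gel-excised, streptavidin-captured and taken through RT-PCR. Fitness is the logarithm of genotype enrichment over wild-type enrichment, from inverse-variance-weighted replicate averages of Illumina-sequenced inputs and outputs. […] only genotypes with ≥10 input reads and ≥1 read per output were kept.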

Variant | polymerase ribozyme fitness (log ratio)
C15A G47U | -4.02
U14G A43U C88G | -3.5
U14A U21A U30G G58C U112C A118C | -4.31
U14A C101U | -3.07
U14A U33G C34A G47C C70U U112A G127A | -6.98
U14G A111C G127A | -3.8
C15A A16C C72A | -2.92
C15A C70U G93C C124G G128C | -4.17
C13U G71U A111G U126G | -0.972
C15A C56U U59C C64U A84U C98G G110A | -7.69
C13U G60A C82A U131G | -0.416
C13U U129A | -0.61
U14G G44C C86U C89U G120A | -2.75
U14A G52U C72U U116C G122U | -4.11
C15A G39U C40U C64U G93C | -4.09
U14G C62U U78C | -2.77
C15A G47U C64U C123U | -2.43
U14A G48A U59A C89A | -5.96
U14G G61C | -4.21
C13U U55G C72U | -0.221
U14C A16U C88U C101A U129G | -5.73
U14C G71U A91U C114A A121U C124U | -4.54
C13U U112A C123A G128C | -1.12
C13U G58A C73U | -0.277

Variant | polymerase ribozyme fitness (log ratio)
C15A G52U | -3.6
U14C C53G A74C A83G C94U | -2.55
C15A A41C C104U | -2.15
C15A G52U A66U C94G | -5.17
C15A A24U C72G C76U C123G | -6.56
U14A A46C C70A U112A A119G G122C | -2.7
U14G U130A | -3.36
U14G C56A G120C | -0.0635
U14G C80U C89G | -4.89
U14C G44U | -3.05
C15A G61U | -0.806
U14G A91U | -3.73
C15A A66G U81C | -4.15
U14A C49U G60A A100U U106A | -3.83
U14A G45A G47U G52A C86A | -3.59
C15A G45U A84U C123U | -2.4
U14G C101G | -3.2
U14A A37C C40A G69U | -4.24
C15A G51A A74U C79G A111C A118U | -6.36
C13U U14C G69U C70U A90G | -2.94
U14A G71C G128A | -3.99
C13U U78C C115U | 1.27
U14G C40U U59C A84G U129A | -6.42
C15A G39C G117A | -1.64

Variant | polymerase ribozyme fitness (log ratio)
C15A A29G | -2.66
U14A G63C G113A | -4.74
C15A G120C | -0.2
C15A G120U | -1.44
U14G A95G | -2.23
U14G A95U | -2.44
U14A C70G | -3.97
U14A C20G C40U G45A G63C U96G U112A G117A | -6.83
C15A C72U | -2.75
C15A C72A | -1.94
C15A G47U G127C | -5.43
C15A G71U C104A | -4.07
U14A A24C C49G C72U U92C G113U U116A | -6.78
C15A C53G C102U | -4.5
U14A C72U C89A | -3.16
U14A C56U C73U U112G G120C | -1.15
U14G C114U U132A | -7.19
C13U G120C | 1.89
C13U G120A | 1.58
U14G G36U G42C G61A G113A U132A | -5.95
U14G G48U | -2.8
U14A A24G G61C C89G A91C C101A U112A G122U U125A | -6.22
U14G C64U C98U | -4.29
C13U U30C C80A C89U C124G | -5.32

Variant | polymerase ribozyme fitness (log ratio)
C13U G117U | -2.13
U14G G60U G61A | -3.09
C15A C40A | -3.27
U14G G120C | 0.117
U14C U54G C62U | -1.69
U14C G48U U54A | -2.87
C15A G48C C70U | -3
U14A G19U U32G U81G A100G G120C | -7.12
C15A A43G C53U | -3.68
U14A A84C G122A | -1.57
C15A C76U C79A C104A C123A | -4.6
C15A C20U | -3.39
U14G C56G A84U U106C G110U | -5.11
C13U U59C A83U U96G | -1.05
U14C U67A G69A | -5.17
C15A C49U C72A U132A | -1.5
C15A A26G G110A G113U | -6
U14G U21G C40A G48C U106A | -5.19
U14G U78A G117A G120A | -2.29
C15A G57A U78A G110U C124G | -3.91
C15A C53U G63C | -2.5
U14C G44A A46U A75G A95U | -3.28
C13U G61C G93U U132C | -2.93
C13U G122A | 0.447

Variant | polymerase ribozyme fitness (log ratio)
C15A G120C U129A | -1.24
U14A G39A U55A U78C G117C | -7.2
C13U U126A | -1.64
U14A A26U | -5.1
U14A G61C | -3.93
C15A G42A G71U G117C | -5.93
U14A C31U U32G C53G C80A C104U G120C G135U | -7.94
U14A G61A G117A | -4.06
U14C C15U C73G | -3.76
U14C G51U C104U | -4.54
C15A G61A A83U G117C | -5.31
C15A G60U | -2.01
C15A A41C | -3.59
U14G A37U C70U A74U U133G | -3.41
C15A G77A U96A | -3.85
U14A U106A | -1.9
C15A C85G | -3.35
U14C C62U | -1.6
C13U G61A | -0.508
U14C G63C U112G G113U | -5.75
U14C A46C C79U U106C | -3.22
C15A G19U G63C G113A G135C | -3.99
C15A G48C C123G | -1.77
U14G U21C G42U | -3.13

Variant | polymerase ribozyme fitness (log ratio)
C15A C40A C102U C114G | -6.22
U14A G63A G93A | -4.67
U14G C49G | -2.23
U14C G48U C72G | -2.66
U14G A43U G63C G71U C88G | -7.34
U14G G58A A95U G117C | -5.13
U14G C22U A29G C124G U129C | -3.15
U14A C34G G71C A91G C124A | -6.51
U14A C49G | -2.67
C13U G110A | -0.303
U14G C101U U126G | -4.96
U14C A50U U96C C115U A121U | -5.13
U14A G48U U59G | -2.71
C15A C62A C76U U96G C115U | -6.47
U14A C49G G61C A66U | -5.01
U14G G44C C80U | -3.74
C15A C56G | -3.39
C13U G60A | 0.0451
C13U G60U | -0.0139
C13U G71A | -0.0397
C13U U32G U87C | -7.09
U14A A37U G52A U59C | -3.31
C13U U106G | -0.787
U14G G42C A46C C53U G61A | -4.45

Variant | polymerase ribozyme fitness (log ratio)
C15A U21A U78A G93U | -2.36
U14G C53A A84C | -2.21
C15A C94U | -1.87
U14G G47A C89G C114G U116C G117A U133A | -6.43
C15A A43U C76G | -3.73
U14A G19A G42U A43C C70A | -6.34
U14A A29G U55C C72U C86U | -4.41
U14G G63A | -2.49
C15A A16U C20A C89G G117U | -3.6
U14C C22U U32C | -5.53
U14A U21G | -1.66
C13U U59A G60A C80U A95C G120U | -1.94
U14G U54C | -2.42
U14A U54G A84U C98A A103U G117A C123G G128A | -6.1
U14G G45A C102U | -5.41
C13U G69A C88U | -2.75
C15A C85G C94A | -3.92
C15A A16U C88A | -3.46
C15A G23U C72G C98A C114G U116A | -7.66
U14C | -1.23
U14G | -1.56
U14A | -1.85
U14G G45A A121U | 0.629
